# Test results: the nanobody polyreactivity screen of Harvey et al. (2022)
# Experiment: yeast display, Sf9 membrane polyspecificity reagent, FACS + sequencing; frameworks hold sequencing errors
# How it was run: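 Sorting gates, low and high (top ~1%), were placed on anti-HA fluorescence to track expression and on streptavidin fluorescence to track reagent binding. A clone's polyreactivity label is taken from the gate it came out of. The reagent was 10% biotinylated, detergent-solubilized Sf9 membrane, applied for 1 hour at 4 °C to galactose-induced yeast display cells.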
row,Sequence,polyreactivity (PSR sort gate)
1,QVQLVESGGGLVQAGGSLRLSCAASGSTFQYYAMGWYRQAPGKERELVAAISYGGSRTYYADSVKGRFTISRDNAKNNVYLQMNSLKPEDTAVYYCAKVKYRALAPYYYWGQGTQVTVSS,high polyreactivity
2,QVQLVESGGGLVQAGGSLRLSCAASGSTFQYYAMGWYRQAPGKEREMVAAISASVDTTFYADSVKGRFTISRDNAKNTVYLQMNSLKPEDTAVYYCATDWPHWRKVYWFDYWGQGTQVTVSS,low polyreactivity
3,QVQLVESGGGLVQAGGSLRLSCAASGSTFRANAMGWYRQAPGKERELVAAISQSGGITYYADSVKGRFTISRDNAKNTVYLQMNSLKPEDTAVYYCAALGYRIKRGRFYYWGQGTQVTVSS,high polyreactivity
4,QVQLVESGGGLVQAGGSLRLSCAASGSTFRANAMGWYRQAPGKERELVAAISSGDSTNYADSVKGRFTISRDNAKKSVYLQMNSLKPEDTAVYYCAAVYTYYWWGSYGYWGQGTQVTVSS,low polyreactivity
5,QVQLVESGGGLVQAGGSLRLSCAASGSTFREYAMGWSRQAPGKERELVAAISSGDSTNYADSVKGRFTISRDNAKNTVYLQMNSLKPEDTAVYYCAADAPGAAAVQNDYWGQGTQVTVSS,low polyreactivity
6,QVQLVESGGGLVQAGGSLRLSCAASGSTFRFNAMGWYRQAPGKERELVAAITGIGGITYYADSVKGRFTISRDNAKNTVYFQMNSLKPEDTAVYYCNAAGGYKPYLQDVDSRYDYWGQGTQVTVSS,high polyreactivity
7,QVQLVESGGGLVQAGGSLRLSCAASGSTFRFYGMGWYRQAPGKERELVAAITYRSGITYADSGKGGFSISRDNANNTVYLLMNSLKPEETAVYYCAARARRYTDEYDYWGQGTQVTVSS,low polyreactivity
8,QVQLVESGGGLVQAGGSLRLSCAASGSTFRFYTMGWYRQAPGKERELVATITSGGSTNYADSVKGRFTISRDNAKNTVYLQMNSLKPEDTAVYYCAASSVLTNHDYWGQGTQVTVSS,low polyreactivity
9,QVQLVESGGGLVQAGGSLRLSCAASGSTFRGNAMGWYRPAPGKERELVASITGGGSTNYADSVKGRFTISRDNAKNTVYVPMNSLKPEDTAGYYCAADWGADFYWGQGTQVTVSS,low polyreactivity
10,QVQLVESGGGLVQAGGSLRLSCAASGSTFRGNAMGWYRQAPGKERELVAAITGRGGRTYYADSVKGRFTISRDNAKNTVYLQMNSLKPEDTAVYYCAAYSRYKPYGITAYDYWGQGTQVNVSS,high polyreactivity
11,QVQLVESGGGLVQAGGSLRLSCAASGSTFRGYAMGWYRQAPGKERELVAAISWSAGSTYYADSVKGRFTISRDNAKNTVYLQMNRLKPEDTAVYYCAKASVALRYYSYSLGRDYWGQGTQVTVSS,low polyreactivity
12,QVQLVESGGGLVQAGGSLRLSCAASGSTFRHYAMGWYRQAPGKERELVAVISWGGTSTYYADSVKGRFTISRDNAKNTVYLQMNSLKPEDTAVYYCNKAYFPIFKGYEMYYWGQGTQVTVSS,low polyreactivity
13,QVQLVESGGGLVQAGGSLRLSCAASGSTFRINAMGWYRLAPGKEREFVAAIRWNGGSTNYADSVKGRFTISRDNAKNTVYVQMNSLKPEDTAVYYCAADGYIGWRHIYEYWGQGTQVTVSS,low polyreactivity
14,QVQLVESGGGLVQAGGSLRLSCAASGSTFRIYAMGWYRQAPGKERELVAAITSGGDTNYADSVKGRFTISRDNANNTVYLQMKSLKPEDTSVYYCAADGHSVYTELDYWGQGTQVTVSS,low polyreactivity
15,QVQLVESGGGLVQAGGSLRLSCAASGSTFRIYAMGWYRQAPGKERELVAGITRRGGSTFYADSVKGRFTISRDNAKNTVYLQMNSLKPEDTAVYYCAARFRGGMDYWGQGTQVTVSS,high polyreactivity
16,QVQLVESGGGLVQAGGSLRLSCAASGSTFRLYAIGWYRQAPWKERELDAAISSGGTTKYADSVKGRFTISRDNAKKTVYLQMNRLKPEDTAVYYCNAVYHWGNPGEYATLPRYDYWGQGTQVTVSS,high polyreactivity
17,QVQLVESGGGLVQAGGSLRLSCAASGSTFRLYAMGWYRQAPGKEREFVAAISFRGGSTYYADSVKGRFTISRDNAKNTVYLQMNSLKPEDTAVYYCNARVRVRLGRNWSSYYYWGQGTQVTVSS,high polyreactivity
18,QVQLVESGGGLVQAGGSLRLSCAASGSTFRNYAMGWYRQAPGKERELVAAISGSGGRTNYADSVKGRFTISRDNAKNTVYLQMNSLKPEDTAVYYCNARFPDWALSEISHSTTYGYWGQGTQVTVSS,low polyreactivity
19,QVQLVESGGGLVQAGGSLRLSCAASGSTFRPYGMGWYRQAPGKERELVAAINSGDSTYYADSVKGRFTISRDNAKNTFYLQMNSLKPEDTAVYYCNADVWWDTWFLDGYDYWGQGTQVTVSS,high polyreactivity
20,QVQLVESGGGLVQAGGSLRLSCAASGSTFRQNTMGWYRQAPGKEREFVAAINYSGGSTNYADSVKGRFTISRDNAKNTVYLQMNSLKPEDTAVYYCAVRQYYYKRMGYWGQGTQVTVSS,high polyreactivity
21,QVQLVESGGGLVQAGGSLRLSCAASGSTFRQYAMGWYRQAPGKERELVAAISSSGSTTYYADSVKGRFTISRDNAKNTVDVQMNSRKPEDTAVYYCAATYGFYYFPYDYWGQGTQVTVSS,low polyreactivity
22,QVQLVESGGGLVQAGGSLRLSCAASGSTFRQYAMGWYRQAPGKERELVAAITWRGDNTYYADSVKGRFTISRDNAKNTVYLQMNSLKPEDTAVYYCAARWSYRLYWGYGYWGQGTQVTVSS,low polyreactivity

row,Sequence,polyreactivity (PSR sort gate)
1,QVQLVESGGGLVQAGGSLRLSCAASGSTFRQYPMGWYRQAPGKEREMVAAITWRGDNTYYADSVKGRFTISRDNAKKTVYLQMNSLKPEDTAVYYCAARWSYRLYWGYGYWGQGTQVTVSS,low polyreactivity
2,QVQLVESGGGLVQAGGSLRLSCAASGSTFRRNAMGWDRQAPGKERELVATISPGARTNYADSVKGRFTISRDNAKNTVYLQMNSLKPEDTAVYYCNAEYTLLYPLYDYWGQGTQVTVSS,low polyreactivity
3,QVQLVESGGGLVQAGGSLRLSCAASGSTFRRNAMGWYRPAPGKERELVAAITSTDSTYYADSVKGRFTISRDNAKNTVYLQMNSLKPEDTAVYYCAKGYWWGGQMGYWGQGTQVTVSS,low polyreactivity
4,QVQLVESGGGLVQAGGSLRLSCAASGSTFRRNAMGWYRQAPGKERELVAAISAGGGSTYYADSVKGRFTISRDNAKNTVYLQMNSLKPEDTAVYYCNVAGSGVRRMGYWGQGTQVTVSS,high polyreactivity
5,QVQLVESGGGLVQAGGSLRLSCAASGSTFRRNAMGWYRQAPGKERELVASISFSGGSTFYADSVKGRFTISRDNAKNTVYLQMNSLKPEDTAVYYCATRYYYSSYEYWGQGTQVTVSS,high polyreactivity
6,QVQLVESGGGLVQAGGSLRLSCAASGSTFRRNVMGWYRQAPGKERELVAAISRSGGRTYYADSVKGRFTISRDNAKNTVYLQMNSLKPEDTAVYYCNATRAGENPDGGDEYWGQGTQVTVSS,high polyreactivity
7,QVQLVESGGGLVQAGGSLRLSCAASGSTFRRYAMGWYRQAPGKERELVAAISSNGGSTYYADSVKGRFTISRDNAKNTVYLQMNSLKPEDTAVYYCAAYRSLDFDYWGQGTQVTVSS,high polyreactivity
8,QVQLVESGGGLVQAGGSLRLSCAASGSTFRRYAMGWYRQAPGKERELVAAITGSGGRTYYADSVKGRFTISRDNAKNTVYLQMNSLIPVDTAVYYCAKEGTFTKGVRLFDYWGQGTQVTVSS,high polyreactivity
9,QVQLVESGGGLVQAGGSLRLSCAASGSTFRRYAMGWYRQAPGKERELVATITSGGRTNYADSVKGRFTISRDNAKNTVYLQMNSLKPEDTAVYYCADRPYFYERSAGYYWGQGTQVTVSS,high polyreactivity
10,QVQLVESGGGLVQAGGSLRLSCAASGSTFRRYTMGWYRQAPGKERELVAAISRSAGSTSYADSVKGRFTISRDNAKNTVYLQMNSLKPEDTAVYYCNARVPLRQYSNYYWGQGTQVTVSS,high polyreactivity
11,QVQLVESGGGLVQAGGSLRLSCAASGSTFRSNAMGWYRQAPGKERELVAVISTRGGRTYYADSVKGRFTISRDNAKNTVYLQMNSLKPEDTAVYYCNTQISGSPYPYYYWGQGTQVTVSS,high polyreactivity
12,QVQLVESGGGLVQAGGSLRLSCAASGSTFRSNAMGWYRQAPGKERVLVAAISRSGGSTYYADSVKGRFTISRDNAKNSVYLQMNSLKPEDTAVYYCAGRYSRDPRTGDYGYCGQGTQVTVSS,low polyreactivity
13,QVQLVESGGGLVQAGGSLRLSCAASGSTFRSYAMGWYRQAHGKERELVAAITSGGSTYYADSVKGRFTISRDNAKNTVYLQMNSLKPEDTAVYYCNARRRTRNVPGKRLRGGIYVYWGQGTQVTVSS,high polyreactivity
14,QVQLVESGGGLVQAGGSLRLSCAASGSTFRSYAMGWYRQAPGKEWELVAAISGDGSTNYADSVKGRFTISRDNAKNTVYLQMNSLKPEDTAVSYCAKDPGYPAPYYDYYYWGQGTQVTVSS,low polyreactivity
15,QVQLVESGGGLVQAGGSLRLSCAASGSTFRTNAMGWYRQAPGKERELVAGITSGTSTNYADSVKGRFTISRDNAKNTVYLQMNSLKPEDTAVYYCNTDRIWYGPEYDYWGQGTQVTVSS,low polyreactivity
16,QVQLVESGGGLVQAGGSLRLSCAASGSTFRTYAMGWYRQAPGTEREFVAVISASGGSTYYADSVKGRFTISRDNAKNTVYLQMNSQKPEDTAVYYCNAGRPRFYRSRWYYYGYGYWGQGTQVTVSS,high polyreactivity
17,QVQLVESGGGLVQAGGSLRLSCAASGSTFRVNAMGWYRQAPGKERELVAAISGSGSGTYYADSVKGRFTISRDNAKNTVYLQMNSLKPEDTAVYYCAKVPKSRGYVGGMDYWGQGTQVTVSS,low polyreactivity
18,QVQLVESGGGLVQAGGSLRLSCAASGSTFRVNGMGWYRQAPGKERELVAVISWSGGSTYYADSVKGRFTISRDNAKNSVYLQMNSLKPEDTAVYYCAAKVKAGAGYHYDYYWGQGTQVTVSS,high polyreactivity
19,QVQLVESGGGLVQAGGSLRLSCAASGSTFRVNVMGWYRQATGKERELVAAITTSGGSTYYADSVKGRFSISRDNAQNTVYFQMNSLKPEDTAVYYCNTTYPSGWGPDMDYWGQGTQVTVSS,low polyreactivity
20,QVQLVESGGGLVQAGGSLRLSCAASGSTFRVYAMGGDRQAPGKERELVAAITYSGGSTYYADSVKGRFTISRDNAKNTVYLQMNSLKPVDTAVYYCAADGYYGGYNYWGQGTQVTVSS,low polyreactivity
21,QVQLVESGGGLVQAGGSLRLSCAASGSTFRVYAMGWYRQAPGKESELVATISWGGGRTYYADSVKGRFTISRDNAKNTVYLLMNSLKPEDTAVYYCAADQRWTTDQPTAGDYWGQGTQVTVSS,low polyreactivity
